Laboratory results taken from patent US12098378B2, “Anti-fungal polypeptides” (priority 2020, dated 2024).

What was measured:
[1] = system: Podosphaera aphanis; experiment: Control of powdery mildew on strawberry in greenhouse; assay type: in vivo; conditions: 250, 500, 750 g ai/ha, 6 applications
Procedure: Four replicates of 20 strawberry plants (3 m^2 per plot) were treated with 0.576 or 0.72 l of spray solution, corresponding with a spray volume of […], according to local practice. The spray mix contained a concentration of active ingredient as described in Table 6. Six applications were performed spaced 7 days apart. No artificial infection was performed and first spray was placed before first symptoms appeared. The efficacy of 10G11 was compared to that of a non-treated control and the chemical reference Topas 2.5 WG (Penconazole). In addition, a chemical rotation of Ganzo (Myclobutanil), Topas 2.5 WG (Penconazole) and Signum (Boscalid+Pyraclostrobin) was evaluated. A seventh treatment replaced part of the chemicals in this chemical rotation by 10G11 as described in Table 6.
Efficacy assessments were performed on 20 leaves per plot, assessing the percentage of leaf area affected (PESSEV) and the percentage of leaves affected (PESINC) on the whole plot. Assessments were performed on a weekly basis and continued until 2 weeks after the last application.

[2] = system: Botrytis cinerea; experiment: Control of Botrytis cinerea on grapevine in field; assay type: in vivo; conditions: 250, 500, 750 g ai/ha, 4 applications; until 20 days after the last application (FIG. 19)
Procedure: Four replicates of 10 vines (33.6 m^2 per plot) were treated with 8 l of spray solution, corresponding with a spray volume of […], according to local practice. The spray mix contained a concentration of active ingredient as described in Table 3. Four applications were done at specific phenological development stages of the vines: BBCH 77, BBCH 79, BBCH 81 and BBCH 85 (according to the standardised BBCH-scale). No artificial infection was performed, and first spray was placed preventative, based on forecasted disease pressure. The efficacy of 10G11 was compared to that of a non-treated control and the chemical reference Teldor (Fenhexamid). In addition, a chemical rotation of Switch (Fludioxonil+cyprodinil) and Teldor and a rotation of Switch and 10G11 was tested.
Disease severity is recorded as percent severity on a scale of 0-100% (PESSEV). Recording started when first symptoms appeared, just prior to the fourth application. Additional assessments were performed 13 and 20 days after the last application. At each assessment, the percentage of grape bunch surface affected by the disease was estimated on 100 randomly selected bunches per plot.

[3] = system: Uncinula necator; experiment: Control of powdery mildew on grapevine in field; assay type: in vivo; conditions: 250, 500, 750 g ai/ha, 8 applications, until four weeks after application
Procedure: Four replicates of 10 vines (25 m^2 per plot) were treated with 8 or 10 l of spray solution, corresponding with a spray volume of […], according to local practice and growth stage of the vines. The spray mix contained a concentration of active ingredient as described in Table 4. Eight applications were performed, spaced on average 10 days apart. No artificial infection was performed and first spray was at pre-bloom stage, before first powdery mildew symptoms. The efficacy 10G11 was compared to that of a non-treated control and the chemical reference Topas 10 EC (Penconazole). In addition, a chemical rotation of Tiovit Jet (sulphur), Vivando (Metrafenon), Sercadis (Fluxapyroxad), Prosper 500 EC (Spiroxamine) and Karathane Star (Meptyldinocap) was evaluated. A seventh treatment replaced part of the chemicals in this chemical rotation by 10G11 as described in Table 4.
Efficacy assessments were performed on leaves by evaluating the percentage of leaf area affected on 100 leaves randomly selected from the same position on the shoot. In addition, powdery mildew infection on fruits was assessed as the percentage of infected area of 50 randomly selected bunches per plot. Assessments continued until 4 weeks after the last application.

[4] = system: liposomes from Fraction 4, the non-polar phospholipids (PLs), of Botrytis cinerea lipid extract; experiment: Interaction with DPH-containing liposomes (fluorescence); assay type: binding; conditions: Fraction 4 liposomes (FIG. 11)
Procedure: (§1) In order to investigate the putative interaction partner of 10G11 and its variants, lipids were extracted from Botrytis cinerea hyphae as described in Example 1. For the further fractionation of the total lipid extract thin-layer chromatography was used (TLC; Skipski et al (1965), Biochimica et Biophysica Acta, 106(2): 386-396). The extract was spotted on a silica gel glass plate and run in a chromatography tank filled with 100 mL of the chloroform/methanol mixture (85/15, v/v). Lipid bands separated by TLC were stained with alpha-naphthol enabling visual detection of lipids. Four fractions were identified (FIG. 10): Fraction 1, the fraction of polar lipids; Fraction 2, with a Retention Factor (Rf) similar to the glucosylceramide reference standard (GlcCer from Tamogitake), likely to be ceramides; Fraction 3, with a slightly higher Rf than the reference standard; and Fraction 4, the non-polar phospholipids (PLs). For obtaining sufficient material from the separate Fractions, normal-phase flash chromatography can be used (Gorden, M. H. (2015). Encyclopedia of Analytical Science (Second edition), Elsevier). The TLE was therefore dissolved in CH2Cl2 by addition of a few drops of MeOH and loaded onto a 4 g normal phase flash cartridge with 15 μm particles. The column was run with CH2Cl2/MeOH (85/15, v/v) as the eluent. Finally, Fractions were filtered through a 0.45 μm syringe filter (nylon membrane), and dried. Hereafter, liposomes from the true lipid extract and its individual fractions were prepared via the thin-film hydration method with the addition of 1,6-diphenyl-1,3,5-hexatriene (DPH) (Trucillo et al, 2020. Processes 8(9):1022; Zhang, 2017. Liposomes 1522:1 7-22). […] Any disruption of the lipid membranes would lead to a decrease in fluorescent signal. Hereafter, the interaction of 10G11 with these liposomes was tested.

[5] = system: liposomes from Fraction 3 of Botrytis cinerea lipid extract; experiment: as above; assay type: binding; conditions: Fraction 3 liposomes (FIG. 11)
Procedure: as §1

[6] = system: liposomes from total lipid extract (TLE) of Botrytis cinerea hyphae; experiment: as above; assay type: binding
Procedure: as §1

[7] = system: Fraction 3; experiment: Bio-layer interferometry (BLI) binding; set-up: species or system Botrytis cinerea; conditions: compared to a reference VHH (FIG. 12)
Text: 10G11 binding to Fraction 3 was further confirmed by bio-layer interferometry (BLI). BLI is a label-free optical analytical technique for measuring biomolecular interactions (Kamat et al, 2017. Analytical biochemistry 536: 16-31; Wallner et al. 2013. Journal of Pharmaceutical and Biomedical Analysis 72: 150-154).

B1: 10G11: VHH polypeptide, SEQ ID NO: 2, begins with a D residue (protein)
VHH: DVQLVESGGGLVQAGGSLRLSCAASRSIFSINAMDWYRQAPGKQREWVAGITRGGTTKYADSVKGRFTISRDNAKKKVYLQMNSLKPEDTAVYYCNVLRGEQPWTRDYWGQGTQVTVSS
B1 was tested, and the “severity (PESSEV) of powdery mildew on strawberry” value ([1]; until two weeks after the last application (FIG. 24)) was “clear and dose-related performance”, the “incidence (PESINC) of powdery mildew on strawberry” value ([1]; until two weeks after the last application (FIG. 25)) was “clear and dose-related performance” and the “percent severity (PESSEV) of Botrytis cinerea on grape bunches” value [2] was “clear and dose-related performance”. The “severity of powdery mildew on grape leaves (percentage of leaf area affected)” value ([3]; very high disease pressure (FIG. 20)) was “clear and dose-related performance”, the “severity of powdery mildew on grape bunches (percentage of infected area)” value ([3]; very high disease pressure (FIG. 21)) was “clear and dose-related performance” and the “interaction with lipids in liposomes (DPH fluorescence)” value (shortened to “interaction with lipids in liposomes”) [4] was “interacts”. For the same molecule, the “interaction with lipids in liposomes” value [5] was “interacts”, the “membrane disruption of liposome vesicles” value ([6]; stated generally for the liposomes with which 10G11 interacts (FIG. 11)) was “breakage of the vesicles” and the “interaction with lipids in liposomes” value ([6]; total lipid extract (TLE) liposomes (FIG. 11)) was “interacts”. The “binding to Fraction 3 by BLI” value [7] was “confirmed binding”.
